± gives the standard deviation of the averaged measurements.
Experiments:
[1] = test system: VchCAST RNA-guided transposition machinery (E. coli BL21(DE3) host, lacZ target); assay: relative integration efficiency (T-RL orientation) vs wild-type transposon end (log2 (normalized fold change)); transposon end mutated: right end (5 bp flank + 75 bp right end); higher = more efficient transposition
Outline: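 In E. coli BL21(DE3), a T7-driven effector plasmid was paired with a pUC57 mini-transposon donor containing 1549 left-end or 1849 right-end barcoded transposon variants. Cells grew on plates with 0.1 mM IPTG at 37°C for 18 h. Relative integration efficiency was derived from Illumina reads of genomic integration junctions against input plasmids, as a log-transformed output/input barcode fold change normalised to reference barcodes.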

[2] = test system: VchCAST RNA-guided transposition machinery (E. coli BL21(DE3) host, lacZ target); assay: relative integration efficiency (T-LR orientation) vs wild-type transposon end (log2 (normalized fold change)); transposon end mutated: right end (5 bp flank + 75 bp right end); higher = more efficient transposition
Protocol: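 Pooled, barcoded VchCAST (Tn6677) mini-transposon donor libraries; each variable transposon-end sequence sits in a fixed pDonor mini-transposon context (10-bp barcode and cargo not included). Left- or right-end libraries were co-transformed with pEffector (TniQ-Cascade, TnsABC, lacZ crRNA, T7, 0.1 mM IPTG) into E. coli BL21(DE3) and grown 18 h at 37 C. T-LR and T-RL junction amplicons were sequenced; output/input barcode fold change was normalised to the mean of four wild-type barcodes and log2-transformed. Two biological replicates; zero-count/undetected variants carry floor values (-10 / -15), censored here. Barcode uncoupling by PCR recombination adds noise.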

Row | Sequence | relative integration efficiency (log2) [1] | relative integration efficiency (log2) [2]
1 | ACATTTCTCGATACAACCATAAAATGATAATTACACCCATAAATGGATCATTATCACACCCAATTTAACTATAACGCTCTGATCATAGTCAGACCAACATTGCTACGACCCGTATTCGCACCGACAC | -2.3 ± 0.27 | 0.0432 ± 0.045
2 | ACATTTCTCGATACAACCATAAAATGATAATTACACCCATAAATTCATAATTATCACACCCAATTTAACTATAACGCTCTGATCATAGTCAGACCAACATTGCTACGACCCGTATTCGCACCGACAC | -1.95 ± 0.18 | 0.496 ± 0.27
3 | ACATTTCTCGATACAACCATAAAATGATAATTACACCCATAAATTCATCATTATCACACCCAATTTAACTATAACGCTCTGATCATAGTCAGACCAACATTGCTACGACCCGTATTCGCACCGACAC | -3.05 ± 0.46 | 0.303 ± 0.055
4 | ACATTTCTCGATACAACCATAAAATGATAATTACACCCATAAATTGATAATTATCACACCCAATTTAACTATAACGCTCTGATCATAGTCAGACCAACATTGCTACGACCCGTATTCGCACCGACAC | -1.57 ± 0.34 | 1 ± 0.028
5 | ACATTTCTCGATACAACCATAAAATGATAATTACACCCATAAATTGATCATTATCACACCCAATTTAACTATAACGCTCTGATCATAGTCAGACCAACATTGCTACGACCCGTATTCGCACCGACAC | -1.71 ± 0.54 | 1.36 ± 0.048
6 | ACATTTCTGGATACAACCATAAAATGATAATTACACCCATAAATGGATAATTATCACACCCAATTTAACTATAACGCTCTGATCATAGTCAGACCAACATTGCTACGACCCGTATTCGCACCGACAC | -2.35 ± 0.26 | -0.444 ± 0.28
7 | ACATTTCTGGATACAACCATAAAATGATAATTACACCCATAAATGGATCATTATCACACCCAATTTAACTATAACGCTCTGATCATAGTCAGACCAACATTGCTACGACCCGTATTCGCACCGACAC | -3.09 ± 0.37 | -0.629 ± 0.35
8 | ACATTTCTGGATACAACCATAAAATGATAATTACACCCATAAATTCATAATTATCACACCCAATTTAACTATAACGCTCTGATCATAGTCAGACCAACATTGCTACGACCCGTATTCGCACCGACAC | -3.39 ± 0.26 | -0.65 ± 0.075
9 | ACATTTCTGGATACAACCATAAAATGATAATTACACCCATAAATTCATCATTATCACACCCAATTTAACTATAACGCTCTGATCATAGTCAGACCAACATTGCTACGACCCGTATTCGCACCGACAC | -3.59 ± 0.54 | -0.104 ± 0.069
10 | ACATTTCTGGATACAACCATAAAATGATAATTACACCCATAAATTGATAATTATCACACCCAATTTAACTATAACGCTCTGATCATAGTCAGACCAACATTGCTACGACCCGTATTCGCACCGACAC | -1.94 ± 0.42 | 0.495 ± 0.035
11 | ACATTTCTGGATACAACCATAAAATGATAATTACACCCATAAATTGATCATTATCACACCCAATTTAACTATAACGCTCTGATCATAGTCAGACCAACATTGCTACGACCCGTATTCGCACCGACAC | -2.77 ± 0.4 | 0.307 ± 0.3
12 | ACATTTCTTCATACAACCATAAAATGATAATTACACCCATAAATGGATAATTATCACACCCAATTTAACTATAACGCTCTGATCATAGTCAGACCAACATTGCTACGACCCGTATTCGCACCGACAC | -4.17 ± 0.17 | -2.86 ± 0.049
13 | ACATTTCTTCATACAACCATAAAATGATAATTACACCCATAAATGGATCATTATCACACCCAATTTAACTATAACGCTCTGATCATAGTCAGACCAACATTGCTACGACCCGTATTCGCACCGACAC | -4.65 ± 0.36 | -3.69 ± 0.99
14 | ACATTTCTTCATACAACCATAAAATGATAATTACACCCATAAATTCATAATTATCACACCCAATTTAACTATAACGCTCTGATCATAGTCAGACCAACATTGCTACGACCCGTATTCGCACCGACAC | -5.24 ± 0.61 | -3.54 ± 2.7
15 | ACATTTCTTCATACAACCATAAAATGATAATTACACCCATAAATTCATCATTATCACACCCAATTTAACTATAACGCTCTGATCATAGTCAGACCAACATTGCTACGACCCGTATTCGCACCGACAC | -4.8 ± 0.27 | -3.38 ± 0.49
16 | ACATTTCTTCATACAACCATAAAATGATAATTACACCCATAAATTGATAATTATCACACCCAATTTAACTATAACGCTCTGATCATAGTCAGACCAACATTGCTACGACCCGTATTCGCACCGACAC | -3.68 ± 0.52 | -2.1 ± 0.57
17 | ACATTTCTTCATACAACCATAAAATGATAATTACACCCATAAATTGATCATTATCACACCCAATTTAACTATAACGCTCTGATCATAGTCAGACCAACATTGCTACGACCCGTATTCGCACCGACAC | -4.44 ± 0.65 | -3.3 ± 0.16

Row | Sequence | relative integration efficiency (log2) [1] | relative integration efficiency (log2) [2]
18 | ACATTTCTTGATACAACCATAAAATGATAATTACACCCATAAATGGATAATTATCACACCCAATTTAACTATAACGCTCTGATCATAGTCAGACCAACATTGCTACGACCCGTATTCGCACCGACAC | -2 ± 0.23 | 0.0926 ± 0.35
19 | ACATTTCTTGATACAACCATAAAATGATAATTACACCCATAAATGGATCATTATCACACCCAATTTAACTATAACGCTCTGATCATAGTCAGACCAACATTGCTACGACCCGTATTCGCACCGACAC | -2.34 ± 0.22 | 0.00332 ± 0.054
20 | ACATTTCTTGATACAACCATAAAATGATAATTACACCCATAAATTCATAATTATCACACCCAATTTAACTATAACGCTCTGATCATAGTCAGACCAACATTGCTACGACCCGTATTCGCACCGACAC | -2.79 ± 0.24 | -0.103 ± 0.73
21 | ACATTTCTTGATACAACCATAAAATGATAATTACACCCATAAATTCATCATTATCACACCCAATTTAACTATAACGCTCTGATCATAGTCAGACCAACATTGCTACGACCCGTATTCGCACCGACAC | -2.84 ± 0.46 | 0.193 ± 0.077
22 | ACATTTCTTGATACAACCATAAAATGATAATTACACCCATAAATTGATCATTATCACACCCAATTTAACTATAACGCTCTGATCATAGTCAGACCAACATTGCTACGACCCGTATTCGCACCGACAC | -1.92 ± 0.52 | 1.34 ± 0.11
23 | ACATTTGAAGATACAACCATAAAATGATAATTACACCCATAAATTGATAATTATCACACCCATAAATTGATATTGCCTCTGATCATAGTCAGACCAACATTGCTACGACCCGTATTCGCACCGACAC | -0.132 ± 0.019 | -0.786 ± 0.12
24 | ACATTTGATGATACAACCATATAATGATAATAACACCCATAAAATGATAATTATCACACCCAATTTAACTATAACGCTCTGATCATAGTCAGACCAACATTGCTACGACCCGTATTCGCACCGACAC | -1.61 ± 0.26 | 1.073 ± 0.0088
25 | ACATTTGATGATACTACCATTTAATGATAATAACACCCATAAAATGATAATTATCACACCCAATTTAACTATAACGCTCTGATCATAGTCAGACCAACATTGCTACGACCCGTATTCGCACCGACAC | -2.14 ± 0.37 | -0.158 ± 0.16
26 | ACATTTGATGATAGAACCATTTAATGATAATAACACCCATAAAATGATAATTATCACACCCAATTTAACTATAACGCTCTGATCATAGTCAGACCAACATTGCTACGACCCGTATTCGCACCGACAC | -2.75 ± 0.52 | -0.836 ± 0.44
27 | ACATTTGCTGATACAACCATATAATGATAATAACACCCATAAAATGATAATTATCACACCCAATTTAACTATAACGCTCTGATCATAGTCAGACCAACATTGCTACGACCCGTATTCGCACCGACAC | -2.08 ± 0.55 | 0.121 ± 0.33
28 | ACATTTGCTGATACTACCATATAATGATAATAACACCCATAAAATGATAATTATCACACCCAATTTAACTATAACGCTCTGATCATAGTCAGACCAACATTGCTACGACCCGTATTCGCACCGACAC | -2.27 ± 0.43 | -0.422 ± 0.19
29 | ACATTTGCTGATACTACCATATAATGATAATAACACCCCTAAAATGATAATTATCACACCCAATTTAACTATAACGCTCTGATCATAGTCAGACCAACATTGCTACGACCCGTATTCGCACCGACAC | -4.12 ± 0.62 | -2.64 ± 0.76
30 | ACATTTGCTGATACTACCATTTAATGATAATAACACCCATAAAATGATAATTATCACACCCAATTTAACTATAACGCTCTGATCATAGTCAGACCAACATTGCTACGACCCGTATTCGCACCGACAC | -2.31 ± 0.44 | -0.487 ± 0.3
31 | ACATTTGCTGATACTACCATTTAATGATAATAACACCCCTAAAATGATAATTATCACACCCAATTTAACTATAACGCTCTGATCATAGTCAGACCAACATTGCTACGACCCGTATTCGCACCGACAC | -4.9716 ± 0.0047 | -4.07 ± 0.06
32 | ACATTTGCTGATAGAACCATATAATGATAATAACACCAATAAAATGATAATTATCACACCCAATTTAACTATAACGCTCTGATCATAGTCAGACCAACATTGCTACGACCCGTATTCGCACCGACAC | -3.5 ± 0.17 | -2.34 ± 0.35
33 | ACATTTGCTGATAGAACCATATAATGATAATAACACCCATAAAATGATAATTATCACACCCAATTTAACTATAACGCTCTGATCATAGTCAGACCAACATTGCTACGACCCGTATTCGCACCGACAC | -2.94 ± 0.33 | -1.38 ± 0.21
34 | ACATTTGCTGATAGAACCATTTAATGATAATAACACCAATAAAATGATAATTATCACACCCAATTTAACTATAACGCTCTGATCATAGTCAGACCAACATTGCTACGACCCGTATTCGCACCGACAC | -4.53 ± 0.5 | -2.93 ± 0.82

Source: the supplement of paper PMC10201428
